“Also recorded” adds a separate entry of the source.
Target: T1, EGF receptor (Homo sapiens, UniProt P00533)
T1 construct: endogenous in cells; host or cells: A431 cells
Assay: 125I-EGF competition radioisotope assay on A431 cells
Type: binding
Settings: 4° C., 4 h
Procedure: The retention of EGF binding activity after chemical coupling of ADM-HZN to EGF was determined by a competition radioisotope assay, using the A431 cell line. This cell line was derived from a […] and in our laboratory can bind between 1-4×10^7 molecules of EGF (results not shown). Cells, diluted in RPMI 1640 growth medium containing 10% FCS, were plated in 96-well microtiter plates (5×10^5 cells/well) 24 h before the assay. On the day of the assay, the A431 cells, which grow as an adherent cell population, were washed in DMEM containing 2% bovine serum albumin (hereafter referred to as buffer A). Cells (in triplicate) were incubated with 0.05 ml of 2-fold serially diluted EGF or EGF-ADM, and 0.05 ml of ^125 I-labeled EGF (50 ng/ml) diluted in buffer A (final volume: 0.1 ml/well). The cells were incubated at 4° C. for 4 h, and then washed 3 times with buffer A. The cells were removed from the 96-well plastic plates by solubilization with 1.0M NaOH, and the amount of cell-bound ^125 I-EGF was determined by counting on a LKB model 1272 gamma counter.

EGF-ADM: SPDP-thiolated murine EGF reacted with ADM-HZN, 13-keto acylhydrazone linker
inhibition of 125I-EGF binding, binding activity vs unconjugated EGF: only a small loss in binding activity; also recorded: retention of binding activity

Source: patent US5122368A, “Anthracycline conjugates having a novel linker and methods for their production” (Bristol-Myers Squibb Company, priority 1989, dated 1992)
